Reference: patent publication US8444970B2, “Compositions and methods for treating ocular diseases and conditions” (Lpath, Inc., priority 2006, dated 2013)

How the values were obtained:
[1] = tested on: murine cardiac fibroblasts; assay: S1P-stimulated cardiac fibroblast migration, scratch assay; assay type: cell-based, mouse; settings: 1 ug/mL antibody, 12-24 hr
Protocol: FIG. 7. […] See Example 7, below, for experimental details. […] In these experiments, fibroblasts were serum-starved and then treated with 0, 0.1, 0.5, or 1 μM S1P+/−1 μg/mL SPHINGOMAB for 12-24 hr. […] SPHINGOMAB neutralized each of these S1P effects. SPHINGOMAB reduced perivascular fibrosis in vivo in a murine model of a permanent myocardial infarction (E).
S1P makes profound contributions to wound healing by activating fibroblast migration, proliferation and collagen production; SPHINGOMAB neutralizes these effects. Several studies using multiple types of fibroblasts confirm S1P's ability to promote wound healing: 1) S1P increased Swiss-3T3 fibroblast proliferation as measured by ^3H-thymidine incorporation using standard methods (FIG. 7A); 2) S1P promoted the migration of cardiac fibroblasts in a standard scratch wound healing assay. […] In each of these assays, SPHINGOMAB neutralized S1P's. It is anticipated that ocular fibroblasts would respond similarly to S1P and SPHINGOMAB.

[2] = Stability after thermochallenge (TM); assay type: physicochemical; settings: thermochallenge of supernatants
Protocol: iii. Stability. The humanized variants were tested for stability after challenge at high temperature. The approximate midpoints of the thermal unfolding transitions (TM) were determined for every humanized variant by subjecting the supernatants to temperatures ranging from 60 to 74° C. These temperatures were chosen based on the denaturation profile observed for the murine antibody molecule after thermochallenging between a broad range of temperatures between 50 and 80° C. The binding properties of each variant were determined before and after thermochallenge.

HUVECs = assay: HUVEC tube formation on Matrigel; assay type: cell-based, human; settings: co-incubated with S1P, GF-reduced Matrigel, 6 hr
Protocol: FIG. 5. FIG. 5 has two panels, A and B. In panel A, S1P is shown to promote neovascularization through induction of HUVECs tube formation and migration, which is reduced by SPHINGOMAB. […] The number of cells that migrated to the Matrigel membrane were counted in five independent fields.
Experiments were performed as described by Visentin et al. (Cancer Cell 2006 March; 9(3):225-38).

[3] = tested on: macrophage and mast cell infiltration; assay: Murine infarct model, immune cell infiltration into the wound; assay type: in vivo, mouse; settings: 25 mg/kg 48 hr after surgery, four days post-MI
Protocol: FIG. 9. […] SPHINGOMAB reduced immune-cell wound infiltration in vivo. Mice were subjected to MI, treated with saline or 25 mg/kg SPHINGOMAB 48 hr. after surgery and then sacrificed on day 4. SPHINGOMAB reduced macrophage (A) and mast cell (B) infiltration into the wound. Data are represented as fold decrease of saline-treated values.
Based upon the similarities of immune and inflammatory responses in CNV and CVD, the efficacy of SPHINGOMAB to mitigate immune cell infiltration into a wound was evaluated in a murine infarct model as an indication of SPHINGOMAB's potential effects in mitigating these damages during AMD [Vine, et al. (2005), Opthalmology., vol 112: 2076-80; and Seddon and Chen (2004), Int Opthalmol Clin., vol 44: 17-39]. Four days post-MI, macrophage and mast cell infiltration was evaluated using MAC-1 and MCG35 antibodies, respectively, within the area at risk.

[4] = tested on: endothelial cell (EC) infiltration into Matrigel plugs; assay: In vivo Matrigel plug assay, S1P-supplemented plugs, EC infiltration; design: species or system mouse; settings: systemic administration every 48 hrs from 1 day prior to implantation
Protocol: Based on in vivo studies showing that S1P increased endothelial capillary growth into subcutaneously implanted Matrigel plugs, we speculated that SPHINGOMAB could reduce de novo BV formation in vivo. To investigate this, we employed the in vivo Matrigel Plug assay for neovascularization. In one set of experiments, Matrigel was supplemented with either […], 0.5 μg/mL bFGF or 1 μg/mL VEGF and then injected […]. into mice (n=4). After 10 days, the mice were heparinized and injected with the fluorescent lectin, Isolectin B4-FITC, which binds to adhesion molecules expressed by vascular EC that form the growing BVs. The plugs were then excised, frozen in OCT, sectioned and viewed for FITC-stained BVs.
Sections of the plugs were then stained with hemotoxyln & eosin for evaluation of EC infiltration (FIG. 6B). The infiltration of ECs is a critical step in neo-vascularization. […] Cell infiltration is presumed to be ECs although we recognize that other cell types such as immune cells may also be stained.

B1: LT1002: murine anti-S1P monoclonal antibody, IgG1 kappa, hybridoma clone 306D326.26 (antibody, listed as Mus sp., V domains shown)
VH: QAHLQQSDAELVKPGASVKISCKVSGFIFIDHTIHWMKQRPEQGLEWIGCISPRHDITKYNEMFRGKATLTADKSSTTAYIQVNSLTFEDSAVYFCARGGFYGSTIWFDFWGQGTTLTVS
VL: ETTVTQSPASLSMAIGEKVTIRCITTTDIDDDMNWFQQKPGEPPNLLISEGNILRPGVPSRFSSSGYGTDFLFTIENMLSEDVADYYCLQSDNLPFTFGSGTKLEIK
S1P-promoted cardiac fibroblast migration [1]: neutralized
TM (approximate midpoint of thermal unfolding transition) [2]: 65 °C
formation of capillary-like structures (HUVECs): failed to form capillary-like structures
density of inflammatory macrophages [3]: dramatically attenuated
density of mast cells [3]: dramatically attenuated
EC infiltration into S1P-containing Matrigel plugs [4]: reduced amount of EC infiltration
